From US12312398B2, “Compositions and methods for targeting activin signaling to treat cancer” (The Johns Hopkins University, priority 2016, dated 2025)

How the values were obtained:
SMAD = SMAD phosphorylation by western blot in CD4+ T cells; format: cell-based, mice; conditions: CD4+CD25− T cells, anti-CD3/anti-CD28 24 hrs, then 12 hours treatment; Activin 5 or 10 ng/ml; TGF-β 0.5 or 2 ng/ml; versus untreated
Procedure: Cells were harvested and subjected to SDS-PAGE and Western blot with the indicated antibodies.
Since Activin has been reported to promote SMAD signaling in non-T cells (Schmierer, B., et al., J Biol Chem, 2003. 278:21197-203), whether Activin signaling in T cells could have a similar effect was examined SMAD activity was assessed by western blot analysis of SMAD phosphorylation.

naïve CD4+ T cells = assay: In vitro Treg differentiation, intracellular Foxp3 by flow cytometry; format: cell-based, mice
Procedure: Naïve CD4+ T cells from Yap1f/f,Foxp3-yfpCre+ (KO) and Yap1 wt/wt,Foxp3ypfCre+ (WT) mice were stimulated with anti-CD3/CD28 antibodies (1 and 4 ug/ml, respectively) for 3 days in the presence of IL-2 (100 U/ml) and the indicated doses of TGFβ and exogenous Activin A. A low dose of TGF-beta and/or activin was also administered to the indicated samples (activin was dosed at 50 ng/ml on day 0 and day 2 of culture). Treg induction (via detection of intracellular Foxp3 up-regulation) was determined by flow cytometry.
To explore the involvement of Activin/ACVR1C signaling in the driving of Treg differentiation by YAP, the effects of supplemental Activin on in vitro Treg commitment was also investigated. Activation of wild type naïve CD4+ T cells without TGFI3 yielded little-to-no Foxp3 induction.
Naïve CD4+ T cells (CD4+ CD25− CD62LHi) were sorted on a FACS Aria high speed sorter. The sorted cells were activated with plate-bound aCD3 (10 ug/ml) and soluble aCD28 (2ug/ml) in a 24-well plate with the following polarizing conditions: Th1 (IL-12 (10 ng/ml), aIL-4 (10 ug/ml)), Th2 (IL-4 (10 ng/ml), aIFN-g(10 ug/ml), aIL-12 (10 ug/ml)), Th17 (IL-6 (10 ng/ml), TGF-b1 (1.25 ng/ml), IL-23 (10 ng/ml), IL-1b(10 ng/ml), aIFN-g (10 ug/ml), aIL-4 (10 ug/ml), Treg (TGFb1 (5 ng/ml), IL-2 (100IU/ml).
For extracellular staining, harvested cells were washed and incubated in PBS containing 1% FBS containing the below fluorochrome-conjugated antibodies in a U-bottom 96-well plate. For intracellular cytokine staining, harvested cells were re-stimulated in PMA and Ionomycin in the presence of Golg-Plug (BD Biosciences). After 5 hour incubation, the cells were fixed/permeablized (eBioscience) and incubated with antibodies. IFN-g PE, IFN-g APC, IL-13 PE, IL-17 APC (BD Bioscience), IL-2 APC (BD Pharmingen), Foxp3 PE (eBioscience). For cellular proliferation, Cell Trace CFSE cell proliferation kit (Invitrogen) was used per manufacture's manual.

Molecule	SMAD phosphorylation (phospho-SMAD) (SMAD)	Foxp3+ T cell induction (Treg induction) (naïve CD4+ T cells; wild type naïve CD4+ T cells, anti-CD3/CD28, IL-2 (100 U/ml), 3 days, activin 50 ng/ml on day 0 and day 2, low (suboptimal) dose TGF-β)	Foxp3+ T cell induction (Treg induction) (naïve CD4+ T cells; Foxp3-driven YAP knockout (Foxp3Cre+/Yap1f/f) naïve CD4+ T cells, anti-CD3/CD28, IL-2, 3 days)	Foxp3+ T cell induction (Treg induction) (naïve CD4+ T cells; wild type naïve CD4+ T cells, anti-CD3/CD28, IL-2 (100 U/ml), 3 days, activin 50 ng/ml on day 0 and day 2, low (suboptimal) dose TGF-β, listed as Activin A)
TGF-β: anti-inflammatory cytokine TGF-β, inducer of Foxp3 expression	induced SMAD phosphorylation	modest up-regulation of Foxp3	–	–
Activin: Activin (or Activin A), a dimeric member of the TGF-β Superfamily, added exogenously to T cells (protein, UniProt P08476 311-426, looked up, Inhibin beta A chain homodimer) Inhibin beta A chain: GLECDGKVNICCKKQFFVSFKDIGWNDWIIAPSGYHANYCEGECPSHIAGTSGSSLSFHSTVINHYRMRGHSPFANLKSCCVPTKLRPMSMLYYDDGQNIIKKDIQNMIVEECGCS	elevation of phospho-SMAD	–	not seen	generated a population of Foxp3+ cells
